These results are taken from publication PMC8931250, “A SURF4-to-proteoglycan relay mechanism that mediates the sorting and secretion of a tagged variant of sonic hedgehog” (Proceedings of the National Academy of Sciences of the …, 2022).

Sequences and labels used below:
B1: GST-SURF4^49-60 [human] / CW peptides (KRRHPKKC) [not stated (human or mouse cDNA cloned)] (parent complex)
chain 1: SEQRDYIDTTWN
chain 2: KRRHPKKC

The variants in this test derive from B1. Description: peptide pull-down (peptides on thiopyridone Sepharose 6B), anti-GST immunoblot quantification; n = 3, mean ± SD; parent: 1; read off a plot. In general terms: Immunoblotting shows a protein as a band on a membrane.
With chain 2 AAAHPAAC [chain 2 K1A, chain 2 R2A, chain 2 R3A, chain 2 K6A, chain 2 K7A], the ratio to parent is about 0.03.
